Experimental data published in US20170260242, “METHOD FOR MODIFYING RNA BINDING PROTIEN USING PPR MOTIF” (Kyushu University, National University Corporation, published 2017).
Changes are numbered by the printed parent chain.

How the values were obtained:
5&6/5-K12N,6-N12K = target: T1, 5&6/5-K12N,6-N12K (Arabidopsis thaliana, UniProt Q9SF38 SEQ:124-197); experiment: EMSA; affinity improved vs 5-K12N; value in figure; conditions: tags: N-terminal thioredoxin, C-terminal His; label: 32P-UTP internal
T1 chain: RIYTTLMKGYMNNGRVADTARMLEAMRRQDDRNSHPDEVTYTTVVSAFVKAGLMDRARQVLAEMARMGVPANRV
Method: (§1) The RNA binding activity of the mini PPR protein was analyzed by gel shift method. […] Then, to the reaction solution was added 4 microliters of 80% glycerol solution, and 10 μL was developed in 10% nondenaturing polyacrylamide gel comprising 1×TBE (89 mM Tris-HCl, 89 mM Boric acid, and 2 mM EDTA) and the gel was dried after electrophoresis. The radioactivity of RNA in the gel was measured with Bioimaging Analyzer BAS2000 (From Fujifilm). […] The binding between protein and RNA was quantified based on the results in FIGS. 1C-H (FIG. 1B), and evaluated by determining the disassociation constant (Kd) (FIG. 2C).

5&6/5-K12M,6-N12R = target: T2, 5&6/5-K12M,6-N12R (Arabidopsis thaliana, UniProt Q9SF38 SEQ:124-197); experiment: EMSA; partly restored vs 6-N12R; conditions: tags: N-terminal thioredoxin, C-terminal His; label: 32P-UTP internal
T2 chain: T1 chain with N12M, K50R
Method: as §1

HCF152/10&11 = target: T3, HCF152/10&11 (Arabidopsis thaliana, UniProt Q9SF38 SEQ:124-195); experiment: EMSA; 6 mM MgCl2, 30 mM KCl, pH 7.9, 25 C; conditions: tags: N-terminal thioredoxin, C-terminal His; label: 32P-UTP internal
T3 sequence: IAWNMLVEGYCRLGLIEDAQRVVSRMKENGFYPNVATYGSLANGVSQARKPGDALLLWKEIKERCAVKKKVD
Method: as §1

HCF152/8&9 = target: T4, HCF152/8&9 (Arabidopsis thaliana, UniProt Q9SF38 SEQ:124-195); experiment: EMSA; 6 mM MgCl2, 30 mM KCl, pH 7.9, 25 C; conditions: tags: N-terminal thioredoxin, C-terminal His; label: 32P-UTP internal
T4 chain: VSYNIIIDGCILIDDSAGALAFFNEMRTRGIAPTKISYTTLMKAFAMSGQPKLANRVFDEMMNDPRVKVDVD
Method: as §1

5&6/5-T5I = target: T5, 5&6/5-T5I (Arabidopsis thaliana, UniProt Q9SF38 SEQ:123-204); experiment: EMSA; position 5 not among those with 10-fold or more reduction (position-level); conditions: tags: N-terminal thioredoxin, C-terminal His; label: 32P-UTP internal
T5 chain: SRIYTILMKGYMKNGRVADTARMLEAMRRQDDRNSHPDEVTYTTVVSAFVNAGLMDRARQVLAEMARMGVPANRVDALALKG
Method: (§2) The RNA binding activity of the mini PPR protein was analyzed by gel shift method. […] Then, to the reaction solution was added 4 microliters of 80% glycerol solution, and 10 μL was developed in 10% nondenaturing polyacrylamide gel comprising 1×TBE (89 mM Tris-HCl, 89 mM Boric acid, and 2 mM EDTA) and the gel was dried after electrophoresis. The radioactivity of RNA in the gel was measured with Bioimaging Analyzer BAS2000 (From Fujifilm). […] This is because the molecular weight of the 32P-labeled RNA/protein conjugate is larger than the molecular weight of the 32P-labeled RNA alone and thus mobility in electrophoresis had become slower. The binding between protein and RNA was quantified based on the results in FIGS. 1C-H (FIG. 1B), and evaluated by determining the disassociation constant (Kd) (FIG. 2C).
(§3) Using HCF152/5&6 as the model, mini PPR proteins having one amino acid substitution introduced centering on the aforementioned positions (1st, 2nd, 4th, 5th, 8th, 9th, 11th, and 12th) were prepared. The amino acid substitutions were based on substitution to alanine. […] Affinity with RNA was analyzed by the same gel shift method as above (FIG. 3), and the affinity with the RNA was evaluated with Kd (FIG. 4B).

5&6/5-M11A = target: T6, 5&6/5-M11A (Arabidopsis thaliana, UniProt Q9SF38 SEQ:123-204); experiment: EMSA; position 11 not among those with 10-fold or more reduction (position-level); conditions: tags: N-terminal thioredoxin, C-terminal His; label: 32P-UTP internal
T6 chain: T5 chain with I6T, M12A
Method: as §2, §3

5&6/5-M11I = target: T7, 5&6/5-M11I (Arabidopsis thaliana, UniProt Q9SF38 SEQ:123-204); experiment: as above; conditions: tags: N-terminal thioredoxin, C-terminal His; label: 32P-UTP internal
T7 chain: T5 chain with I6T, M12I
Method: as §2, §3

5&6/5-G14A = target: T8, 5&6/5-G14A (Arabidopsis thaliana, UniProt Q9SF38 SEQ:124-197); experiment: EMSA; position 14 not among those with 10-fold or more reduction (position-level); conditions: tags: N-terminal thioredoxin, C-terminal His; label: 32P-UTP internal
T8 chain: T1 chain with N12K, G14A, K50N
Method: as §2, §3

5&6/5-G14D = target: T9, 5&6/5-G14D (Arabidopsis thaliana, UniProt Q9SF38 SEQ:124-197); experiment: as above; conditions: tags: N-terminal thioredoxin, C-terminal His; label: 32P-UTP internal
T9 chain: T1 chain with N12K, G14D, K50N
Method: as §2, §3

8&9/8-D8K = target: T10, 8&9/8-D8K (Arabidopsis thaliana, UniProt Q9SF38 SEQ:124-194); experiment: EMSA; no change vs 8&9; conditions: tags: N-terminal thioredoxin, C-terminal His; label: 32P-UTP internal
T10 chain: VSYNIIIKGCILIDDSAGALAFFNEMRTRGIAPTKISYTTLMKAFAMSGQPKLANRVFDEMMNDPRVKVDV
Method: as §2

HCF152/5&6 [1] = target: T11, HCF152/5&6 (Arabidopsis thaliana, UniProt Q9SF38 SEQ:124-197); experiment: EMSA; 6 mM MgCl2, 30 mM KCl, pH 7.9, 25 C; conditions: tags: N-terminal thioredoxin, C-terminal His; label: 32P-UTP internal
T11 chain: T1 chain with N12K, K50N
Method: as §2

6&7/7-N4T = target: T12, 6&7/7-N4T (Arabidopsis thaliana, UniProt Q9SF38 SEQ:124-195); experiment: EMSA; affinity improved vs 6&7; value in figure; conditions: tags: N-terminal thioredoxin, C-terminal His; label: 32P-UTP internal
T12 chain: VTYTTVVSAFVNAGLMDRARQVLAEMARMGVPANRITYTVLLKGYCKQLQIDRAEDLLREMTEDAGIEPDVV
Method: as §1

6&7/6-V1R = target: T13, 6&7/6-V1R (Arabidopsis thaliana, UniProt Q9SF38 SEQ:124-195); experiment: EMSA; affinity improved vs 6&7; value in figure; conditions: tags: N-terminal thioredoxin, C-terminal His; label: 32P-UTP internal
T13 chain: T12 chain with V1R, T39N
Method: as §1

6&7/6-S8K = target: T14, 6&7/6-S8K (Arabidopsis thaliana, UniProt Q9SF38 SEQ:124-195); experiment: EMSA; affinity improved vs 6&7; value in figure; conditions: tags: N-terminal thioredoxin, C-terminal His; label: 32P-UTP internal
T14 chain: T12 chain with S8K, T39N
Method: as §1

5&6/5-K12H = target: T15, 5&6/5-K12H (Arabidopsis thaliana, UniProt Q9SF38 SEQ:124-197); experiment: EMSA; Kd almost equivalent to wild type 5&6; value in figure; conditions: tags: N-terminal thioredoxin, C-terminal His; label: 32P-UTP internal
T15 chain: T1 chain with N12H, K50N
Method: as §2

8&9/8-D8K,9-K8D = target: T16, 8&9/8-D8K,9-K8D (Arabidopsis thaliana, UniProt Q9SF38 SEQ:124-194); experiment: EMSA; no significant difference vs 8&9; conditions: tags: N-terminal thioredoxin, C-terminal His; label: 32P-UTP internal
T16 chain: T10 chain with K43D
Method: as §1

8&9/9-K8D = target: T17, 8&9/9-K8D (Arabidopsis thaliana, UniProt Q9SF38 SEQ:124-194); experiment: EMSA; no significant difference vs 8&9; conditions: tags: N-terminal thioredoxin, C-terminal His; label: 32P-UTP internal
T17 chain: T10 chain with K8D, K43D
Method: as §1

5&6/5-N13L = target: T18, 5&6/5-N13L (Arabidopsis thaliana, UniProt Q9SF38 SEQ:123-204); experiment: EMSA; position 13 not among those with 10-fold or more reduction (position-level); conditions: tags: N-terminal thioredoxin, C-terminal His; label: 32P-UTP internal
T18 chain: T5 chain with I6T
Method: as §2, §3

5&6/5-N13A = target: T19, 5&6/5-N13A (Arabidopsis thaliana, UniProt Q9SF38 SEQ:123-204); experiment: as above; conditions: tags: N-terminal thioredoxin, C-terminal His; label: 32P-UTP internal
T19 chain: T5 chain with I6T, N14A
Method: as §2, §3

CAR4/6 (I1L) = target: T20, CAR4/6 (I1L) (Arabidopsis thaliana, UniProt O22137 SEQ:124-155); experiment: EMSA; did not bind A; conditions: tags: N-terminal thioredoxin, C-terminal His; label: 5'-32P
T20 chain: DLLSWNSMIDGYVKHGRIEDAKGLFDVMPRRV

[2] = target: T21, CAR4/6 (CRR4 PPR motif 6) (Arabidopsis thaliana); experiment: EMSA; preference for A; conditions: tags: N-terminal thioredoxin, C-terminal His; label: 5'-32P
T21 chain: T20 chain with L3I

HCF152/5&6 [3] = target: T11, HCF152/5&6; experiment: EMSA; A>G>U; 200 nM protein; conditions: tags: N-terminal thioredoxin, C-terminal His; label: 5'-32P
Method: (§4) The binding specificity of the mini PPR proteins were analyzed by gel shift method. […] Then, to the reaction solution was added 4 μl of 80% glycerol solution, and 10 μL was developed in 10% nondenaturing polyacrylamide gel comprising 1×TBE (89 mM Tris-HCl, 89 mM Boric acid, and 2 mM EDTA) and the gel was dried after electrophoresis. The radioactivity of RNA in the gel was measured with Bioimaging Analyzer BAS2000 (From Fujifilm).

HCF152/9&10 = target: T22, HCF152/9&10 (Arabidopsis thaliana, UniProt Q9SF38 SEQ:124-194); experiment: EMSA; A>G>U; 200 nM protein; conditions: tags: N-terminal thioredoxin, C-terminal His; label: 5'-32P
T22 sequence: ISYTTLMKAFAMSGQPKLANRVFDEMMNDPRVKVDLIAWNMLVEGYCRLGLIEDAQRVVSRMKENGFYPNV
Method: as §4

HCF152/2&3 = target: T23, HCF152/2&3 (Arabidopsis thaliana, UniProt Q9SF38 SEQ:124-194); experiment: EMSA; A>G>U; 200 nM protein; conditions: tags: N-terminal thioredoxin, C-terminal His; label: 5'-32P
T23 sequence: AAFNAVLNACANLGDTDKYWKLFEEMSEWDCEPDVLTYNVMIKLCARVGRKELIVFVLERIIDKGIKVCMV
Method: as §4

HCF152/7&8 = target: T24, HCF152/7&8 (Arabidopsis thaliana, UniProt Q9SF38 SEQ:124-196); experiment: EMSA; A>U>G; 200 nM protein; conditions: tags: N-terminal thioredoxin, C-terminal His; label: 5'-32P
T24 chain: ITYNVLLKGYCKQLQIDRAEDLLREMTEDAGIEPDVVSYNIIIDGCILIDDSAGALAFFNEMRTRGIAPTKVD
Method: as §4

B1: BD120 (petB) (ssRNA)
RNA: CUGGAUGGAAUUUCAGUGAAUUAGACUGAGAAGAAUCUUGAAGUUCUAGCUUUUAGCUCGAUACAAAAAAGUAAAGUAUGCAGGUCUAACAAUUUUAGCCUAUUCUCCUUUGGUAGUUCG
binding result (5&6/5-K12N,6-N12K): binds | Kd (5&6/5-K12M,6-N12R): 473 nM | Kd (HCF152/10&11): 5240 nM | Kd (HCF152/8&9): 5.3 nM | binding result (5&6/5-T5I): binds | binding result (5&6/5-M11A): binds | binding result (5&6/5-M11I): binds | binding result (5&6/5-G14A): binds | binding result (5&6/5-G14D): binds | binding result (8&9/8-D8K): binds | Kd (HCF152/5&6 [1]): 21.1 nM | binding result (6&7/7-N4T): binds | binding result (6&7/6-V1R): binds | binding result (6&7/6-S8K): binds | binding result (5&6/5-K12H): binds | binding result (8&9/8-D8K,9-K8D): binds | binding result (8&9/9-K8D): binds | binding result (5&6/5-N13L): binds | binding result (5&6/5-N13A): binds

AUCGAAAAAAAAAAAAAAAAAAAAAAAAA (ssRNA) [LA25]
binding result (CAR4/6 (I1L)): no binding | binding result [2]: binds | binding result (HCF152/5&6 [3]): binds | binding result (HCF152/9&10): binds | binding result (HCF152/2&3): binds | binding result (HCF152/7&8): binds
